From US20040254341A1 (published 2004)
Non-standard residues stand in square brackets, D forms with d. No end group written: not given here. Nle = CCCC[C@H](N)C(=O)O

Target: human Asp2 aspartyl protease (Hu-Asp2), purified enzyme used in the in vitro cleavage assays (human, UniProt P56817 46-456, limits assumed)
Test: cell-based or functional assay

Chain of human Asp2 aspartyl protease (Hu-Asp2), purified enzyme used in the in vitro cleavage assays (P56817 46-456 Q214H limits assumed): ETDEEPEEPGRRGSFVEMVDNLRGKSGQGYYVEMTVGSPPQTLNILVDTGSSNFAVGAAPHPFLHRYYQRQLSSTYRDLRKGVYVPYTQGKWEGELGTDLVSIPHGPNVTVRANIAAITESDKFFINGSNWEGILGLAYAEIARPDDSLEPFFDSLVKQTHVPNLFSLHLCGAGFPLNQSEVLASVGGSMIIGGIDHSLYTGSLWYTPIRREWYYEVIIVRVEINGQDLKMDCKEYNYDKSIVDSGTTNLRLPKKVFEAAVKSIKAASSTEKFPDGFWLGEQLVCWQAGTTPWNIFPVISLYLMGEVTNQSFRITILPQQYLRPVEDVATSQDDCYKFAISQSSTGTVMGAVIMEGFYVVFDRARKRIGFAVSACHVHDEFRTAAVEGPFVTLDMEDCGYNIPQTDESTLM

activity against wild-type	activity against wild type peptide	Binder	further results
~40 fold		SEVSYEAEFR [SEVSY-↓-EAEFR]	
	~70 fold	SEVSYEVEFR [SEVSY-↓-EVEFR]	
~9 fold		SEVSYDAEFR [SEVSY-↓-DAEFR]	

Further lines, the binder ahead of its results:

Binder	activity against wild-type	activity against wild type peptide	further results
KTITLEVEPS [KTITL-↓-EVEPS]		6 fold	
KTISLDVEPS [KTISL-↓-DVEPS]			activity against wild-type peptide: ~35 fold
KTIN[Nle]DVDPS [KTINnle-↓-DVDPS]			activity against peptide #3 (SEQ ID NO:134): ~10 fold reduction
